The source of these data is patent publication US20240385190A1 (EISAI R AND D MANAGEMENT, published 2024).

What all share (assay): ELISA
In one test the target is T1, Rabbit.
T1 construct: also called rabbit EphA4 extracellular domain-SEAP-His protein
The procedure:
(§1) For the anti-human EphA4 monoclonal antibodies produced in Example 1, evaluation of binding activity to various EphA4 was performed according to the following steps. Mouse anti-6-His antibodies (R&D) were coated on the wells of a 96-well plate (Thermo […]). After incubating at room temperature for 1 hour, the wells were blocked at 4° C. overnight with 1% Block Ace (KAC). After washing three times with 0.02% Tween 20/PBS, the wells were seeded with mouse EphA4 extracellular domain-SEAP-His protein, rat EphA4 extracellular domain-SEAP-His protein, rabbit EphA4 extracellular domain-SEAP-His protein, monkey EphA4 extracellular domain-SEAP-His protein, human EphA4 extracellular domain-SEAP-His protein, or SEAP-His protein (final concentration 1 nM), and this was incubated at room temperature for 1 hour. After washing three times, anti-human EphA4 rabbit monoclonal antibody (10 pg/mL) was added, and this was incubated at room temperature for about 1 hour. After washing three times, horseradish peroxidase labeled goat anti-rabbit IgG polyclonal antibody (abcam) was added, and this was incubated at room temperature for 1 hour. After washing three times, TMBZ (3,3′,5,5′-tetramethylbenzidine, KPL) solution was added to the wells, and this was incubated for 3 minutes at room temperature. Equal amounts of quenching solution (2 N H₂SO₄, FUJIFILM Wako) were added to the wells, and absorbance at 450 nm and 650 nm were read with a microplate reader (Thermo […]).

The next test addresses T2, Mouse.
T2 construct: also called mouse EphA4 extracellular domain-SEAP-His protein
The procedure: as §1

In the next test the target is T3, SEAP.
T3 construct: negative control antigen; also called SEAP-His protein
The procedure: as §1

The target of test [1] is human EphA4 extracellular domain-SEAP-His protein (human). The procedure: as §1
For test [2], the target named is T4, monkey EphA4 extracellular domain-SEAP-His protein (monkey).
T4 construct: the fusion as a whole has none; not shown: SEAP-His part
The procedure:
as §1

Another test deals with FN1. On the procedure: (§2) For the anti-human EphA4 monoclonal antibodies produced in Example 1, evaluation of binding activity to various EphA4 was performed according to the following steps. Mouse anti-6-His antibodies (R&D) were coated on the wells of a 96-well plate (Thermo […]). After incubating at room temperature for 1 hour, the wells were blocked at room temperature for 1 hour with 1% Block Ace (KAC). After washing three times with 0.02% Tween 20/PBS, the wells were seeded with human EphA4 extracellular domain-MBP-His protein, human EphA4 ligand binding domain-MBP-His protein, human EphA4 fibronectin III-type domain 1-MBP-His protein, human EphA4 fibronectin III-type domain 2-MBP-His protein, or MBP-His protein (final concentration 1 nM), and this was incubated at room temperature for 1 hour. After washing three times, anti-human EphA4 rabbit monoclonal antibody (10 pg/mL) was added, and this was incubated at room temperature for 1 hour. After washing three times, horseradish peroxidase labeled goat anti-rabbit IgG polyclonal antibody (abcam) was added, and this was incubated at room temperature for 1 hour. After washing three times, TMBZ (3,3′,5,5′-tetramethylbenzidine, KPL) solution was added to the wells, and this was incubated for four and a half minutes at room temperature. Equal amounts of quenching solution (2 N H₂SO₄, FUJIFILM Wako) were added to the wells, and absorbance at 450 nm and 650 nm were read with a microplate reader (Thermo […]).

For another test, the target named is FN2. On the procedure: as §2
Test [3] concerns the target T5, human EphA4 extracellular domain-MBP-His protein (human).
T5 construct: also called human EphA4 extracellular domain (ECD); Human EphA4 extracellular domain-MBP-His 10
On the procedure: as §2

Test [4] deals with human EphA4 ligand binding domain-MBP-His protein (human, UniProt P54764 20-209; P0AEX9 29-392 = MBP). The procedure: as §2
A further test concerns the target T6, Rat.
T6 construct: also called rat EphA4 extracellular domain-SEAP-His protein
The procedure: as §1

A further test concerns the target MBP. On the procedure: as §2

T4 sequence (chain, as listed by the source): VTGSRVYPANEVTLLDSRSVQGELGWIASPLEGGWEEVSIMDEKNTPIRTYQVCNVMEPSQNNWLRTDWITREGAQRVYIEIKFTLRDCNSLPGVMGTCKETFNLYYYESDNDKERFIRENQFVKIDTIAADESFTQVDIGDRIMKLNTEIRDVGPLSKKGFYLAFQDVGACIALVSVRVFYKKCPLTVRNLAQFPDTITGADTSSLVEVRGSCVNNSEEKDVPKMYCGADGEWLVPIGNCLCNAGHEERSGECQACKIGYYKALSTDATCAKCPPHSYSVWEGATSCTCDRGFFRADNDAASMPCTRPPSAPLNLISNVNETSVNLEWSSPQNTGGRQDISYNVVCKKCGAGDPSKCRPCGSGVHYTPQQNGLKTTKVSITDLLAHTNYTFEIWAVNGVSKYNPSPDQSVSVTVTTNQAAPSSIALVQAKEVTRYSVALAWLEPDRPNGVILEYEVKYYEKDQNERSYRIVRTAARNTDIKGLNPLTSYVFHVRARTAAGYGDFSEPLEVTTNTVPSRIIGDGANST
Sequence of human EphA4 extracellular domain-SEAP-His protein (human) (chain, as listed by the source limits assumed): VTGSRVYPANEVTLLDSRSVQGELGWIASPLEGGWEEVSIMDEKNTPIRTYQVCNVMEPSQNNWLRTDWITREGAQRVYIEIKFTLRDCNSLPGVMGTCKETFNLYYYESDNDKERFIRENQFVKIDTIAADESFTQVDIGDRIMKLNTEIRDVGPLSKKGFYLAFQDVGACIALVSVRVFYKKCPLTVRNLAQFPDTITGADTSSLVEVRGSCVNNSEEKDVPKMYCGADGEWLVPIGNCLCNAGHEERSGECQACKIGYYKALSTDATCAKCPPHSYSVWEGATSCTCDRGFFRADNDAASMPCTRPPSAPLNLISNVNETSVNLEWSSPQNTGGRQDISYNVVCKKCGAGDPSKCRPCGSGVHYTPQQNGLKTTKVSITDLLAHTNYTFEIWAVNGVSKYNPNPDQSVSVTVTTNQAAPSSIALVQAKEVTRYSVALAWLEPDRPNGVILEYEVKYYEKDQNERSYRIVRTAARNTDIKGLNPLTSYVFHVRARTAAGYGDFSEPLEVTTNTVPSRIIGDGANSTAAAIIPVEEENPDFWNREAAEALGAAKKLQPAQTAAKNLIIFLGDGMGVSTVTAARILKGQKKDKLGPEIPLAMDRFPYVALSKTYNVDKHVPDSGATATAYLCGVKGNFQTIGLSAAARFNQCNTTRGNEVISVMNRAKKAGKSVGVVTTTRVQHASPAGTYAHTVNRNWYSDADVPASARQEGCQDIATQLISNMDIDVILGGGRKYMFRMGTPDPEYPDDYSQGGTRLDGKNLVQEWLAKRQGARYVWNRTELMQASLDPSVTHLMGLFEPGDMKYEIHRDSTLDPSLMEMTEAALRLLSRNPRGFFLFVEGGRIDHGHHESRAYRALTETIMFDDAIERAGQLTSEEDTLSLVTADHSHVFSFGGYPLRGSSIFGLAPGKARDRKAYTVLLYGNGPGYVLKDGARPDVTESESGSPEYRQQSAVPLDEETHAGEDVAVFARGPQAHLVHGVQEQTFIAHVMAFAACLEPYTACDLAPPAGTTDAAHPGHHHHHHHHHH

B1: KPEP11_02 (antibody, V domains shown)
VH: QSLEESGGRLVTPGGSLTLTCTVSGIDLSSYAMSWVRQAPEKGLEWIGFINNYGTYYASWAKGRFTISKTSTTVDLKVTSLTTEDTATYFCVRGGRSPNYDIVSGDIWGPGTLVTVSS
VL: YVMMTQTPSSVSEPVGGTVTIKCQASQNIYNSLAWYQQKPGQRPKLLIADASELASGVPQRFSGSGSGTQFTLTISDLECADAATYYCQSSSAGDSYVGGFGGGTEVVVKG
notes: Rabbit IgG; also called anti-human EphA4 rabbit monoclonal antibody KPEP11_02
As for B1, the absorbance with Rabbit was 0.04; with Mouse it was 0.048; in the test with SEAP, 0.071; in [1] it was 1.25; in test [2], 1.2; with FN1, 0.213. Besides, the absorbance with FN2 turned out to be 0.227; in test [3] it was 1.35; in test [4], 1.32.

B2: KPEP11_05 (antibody, V domains shown)
VH: QSLEESGGRLVTPGGSLTLTCTVSGIDLSSYAMSWVRQAPEKGLEWIGFINNYGTYYASWAKGRFTISKTSTTVDLKVTSLTTEDTATYFCVRGGRSPNYDIVSGDIWGPGTLVTVSS
VL: YVMMTQTPSSVSEPVGGTVTIKCQASQNIYNSLAWYQQKPGQRPKLLIADASELASGVPQRFSGSGSGTQFTLTISDLECADAATYYCQSSSAGDSYVGGFGGGTEVVVKG
notes: Rabbit IgG; also called anti-human EphA4 rabbit monoclonal antibody KPEP11_05
Regarding B2, the absorbance was found to be 0.035 in the test with Rabbit; 0.043 with Rat; 0.045 in the test with Mouse; 0.043 with SEAP; 1.24 in test [2]; 0.213 in the test with FN1. Also, the absorbance turned out to be 0.225 with FN2, 0.239 with MBP, 1.43 in test [3] and 1.32 in [4].

B3: KPEP11_07 (antibody, V domains shown)
VH: QEQLKESGGRLVTPGGSLTLTCTVSGIDLSSYAMSWVRQAPEKGLEWIGFINMYGTYYASWAKGRFTISRTSTTVDLKVTSLTTEDTATYFCVRGGRSPDYDIVSGDIWGPGTLVTVSS
VL: YVMMTQTPSSVSEPVGGTVTIKCQASQNIYNSLAWYQQKPGQRPKLLIADASELASGVPQRFSGSGSGTQFTLTISDLECADAATYYCQSSSAGDSYVGGFGGGTEVVVKG
notes: Rabbit IgG; also called anti-human EphA4 rabbit monoclonal antibody KPEP11_07
Consider B3, for which the absorbance with Rat came out at 0.044; with Mouse, 0.045; with SEAP, 0.05; in test [1], 1.22; in test [2] it was 1.18; with FN1 it was 0.226. Further, the absorbance with FN2 was 0.22; with MBP, 0.24; in [3], 1.42; in test [4], 1.39.

B4: KPEP11_12 (antibody, V domains shown)
VH: QSLEESGGRLVTPGTPLTLTCTVSGFSLSSYHMSWVRQAPGKGLEWIGIIYRSGNTYYANWAKGRFTISKTSTTVDLKITSPTTEDTATYFCARESSTFYGMDLWGPGTLVTVSS
VL: YVMMTQTPSSVSAAVGGTVTINCQASQSVYGNNELAWYQQKPGQRPKLLIYRASTLASGVPSRFKGSGSGTEFTLTISDLECADAATYYCLGYKSDDYTFGGGTKVEIKG
notes: Rabbit IgG; also called anti-human EphA4 rabbit monoclonal antibody KPEP11_12
Consider B4, for which the absorbance is 0.055 with Rabbit; 0.054 in the test with Rat; 0.059 with Mouse; 0.067 with SEAP; 1.22 in test [1]; 1.19 in test [2]. The absorbance turned out to be 0.255 in the test with FN1, 0.302 in the test with MBP, 1.29 in test [3] and 0.283 in [4].

B5: KPEP11_13 (antibody, V domains shown)
VH: QSLEESGGRLVTPGTPLTLTCTVSGFSLSSYHMSWVRQAPGKGLEWIGIIYRSGNTYYANWAKGRFTISKTSTTVDLKITSPTTEDTATYFCARESSTFYGMDLWGPGTLVTVSS
VL: YVMMTQTPSSVSAAVGGTVTINCQASQSVYGNNELAWYQQKPGQRPKLLIYRASTLASGVPSRFKGSGSGTEFTLTISDLECADAATYYCLGYKSDDYTFGGGTKVEIKG
notes: Rabbit IgG; also called anti-human EphA4 rabbit monoclonal antibody KPEP11_13
For B5, the absorbance with Rabbit stood at 0.083; with Rat, 0.086; with Mouse it was 0.082; with SEAP it was 0.099; in test [1], 1.18; in test [2], 1.17. Besides, the absorbance came to 0.318 with FN1; 0.36 in the test with FN2; 0.402 in the test with MBP; 1.31 in [3]; 0.348 in test [4].

B6: KPEP11_09 (antibody, V domains shown)
VH: QSVEESGGRLVTPGTPLTLTCTVSGFSLSSYHMSWVRQAPGKGLEWIGIIYRSGNTYSANWAKGRFTISKTSTTVDLKITSPTTEDTATYFCARESSTFYGMDLWGPGTLVTVSS
VL: YVMMTQTPSSVSAAVGGTVTINCQASQSVYGNNELAWYQQKPGQRPKLLIYRASTLASGVPSRFKGSGSGTEFTLTISDLECADAATYYCLGYKSDDYTFGGGTKVEIKG
notes: Rabbit IgG; also called anti-human EphA4 rabbit monoclonal antibody KPEP11_09
In the case of B6, the absorbance came out at 0.064 in the test with Rat; 0.079 in the test with Mouse; 0.07 in the test with SEAP; 1.14 in test [1]; 1.15 in test [2]; 0.24 with FN1. The absorbance is 0.242 in the test with FN2, 0.291 with MBP and 1.24 in test [3].

B7: KPEP11_01 (antibody, V domains shown)
VH: QSVEESGGRLVTPGTPLTLTCTVSGFSLSSYHMSWVRQAPGKGLEWIGIIYRSGNTYSANWAKGRFTISKTSTTVDLKITSPTTEDTATYFCARESSTFYGMDLWGPGTLVTVSS
VL: YVMMTQTPSSVSAAVGGTVTINCQASQSVYGNNELAWYQQKPGQRPKLLIYRASTLASGVPSRFKGSGSGTEFTLTISDLECADAATYYCLGYKSDDYTFGGGTKVEIKG
notes: also called anti-human EphA4 rabbit monoclonal antibody KPEP11_01
For B7, the absorbance with Rabbit came to 0.045; with Rat, 0.042; with Mouse it was 0.049; with SEAP, 0.052; in test [1] it was 1.21; in test [2], 1.18. Further, the absorbance in the test with FN1 turned out to be 0.228; with FN2, 0.235; with MBP it was 0.231; in [4], 0.236.

B8: KPEP11_20 (antibody, V domains shown)
VH: QSLEESGGRLVTPGTPLTLTCTVSGFSLNNYYMNWVRQAPGKGLEWIGIIYPDIDTTDYASWVKGRFTISKTSTTVDLKITSPTTEDTATYFCARSDIDYYTTRLDLWGQGTLVTISS
VL: AQVLTQTPSPVSAAVGGTVSINCQSSPSVYNNNWLSWFQQKPGQPPKLLIYGASTLASGVPSRFKGSGSGTQFTLTISDVQCDDAATYYCAGGYDSNSDTAFGGGTELEILG
notes: Rabbit IgG; also called anti-human EphA4 rabbit monoclonal antibody KPEP11_20
For B8, the absorbance with Rabbit turned out to be 0.046; with Rat it was 0.062; with Mouse, 0.052; in the test with SEAP, 0.067; in test [1] it was 1.16; in test [2], 1.15. The absorbance with FN1 is 0.207; in the test with FN2, 0.238; in the test with MBP it was 0.274; in test [3], 1.26; in test [4], 1.42.
